In patent publication US20180155451A1 (published 2018):

T1: FcγRIIb extracellular domain with C-terminal His tag (human, UniProt P31994 43-217)
T1 construct: extracellular domain; Soluble receptor expressed in FreeStyle293 cells, used as analyte in Biacore; also called FcgRIIb; 2b; not shown: His tag attached to the C terminus
T1 sequence (looked up): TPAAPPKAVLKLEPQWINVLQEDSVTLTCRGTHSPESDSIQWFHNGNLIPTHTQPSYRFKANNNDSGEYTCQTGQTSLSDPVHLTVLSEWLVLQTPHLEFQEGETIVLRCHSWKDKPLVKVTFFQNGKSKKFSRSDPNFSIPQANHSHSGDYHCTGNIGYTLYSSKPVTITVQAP

T2: FcγRIIb extracellular domain with C-terminal His tag (human, UniProt P31994 43-217)
T2 construct: extracellular domain; Expressed in FreeStyle293 cells and used as the analyte in Biacore; also called FcgRIIb; 2b; not shown: His tag attached to the C terminus
T2 sequence (looked up): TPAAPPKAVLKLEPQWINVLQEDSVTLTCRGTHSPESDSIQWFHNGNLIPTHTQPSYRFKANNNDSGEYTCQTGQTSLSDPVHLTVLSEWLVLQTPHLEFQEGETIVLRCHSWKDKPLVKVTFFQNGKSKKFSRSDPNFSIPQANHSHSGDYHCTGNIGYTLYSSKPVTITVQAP


Experiments:
[1] = biological target: T3, FcγRIIIa extracellular domain with C-terminal His tag (human, UniProt P08637 17-208); assay: SPR (Biacore); ratio of He/Con_3a (FcγRIIIa) to He/Con_2b (FcγRIIb)
T3 construct: extracellular domain; Soluble receptor expressed in FreeStyle293 cells, used as analyte in Biacore; also called FcgRIIIa; 3a; not shown: His tag attached to the C terminus
Procedure, shortened: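 SPR, 25 °C, HBS-EP+. Ab captured via immobilized antigen peptide (CM5 amine coupling or SA biotin); FcγR injected as analyte. Regen: 10 mM glycine-HCl pH 1.5.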
T3 sequence (P08637 17-208): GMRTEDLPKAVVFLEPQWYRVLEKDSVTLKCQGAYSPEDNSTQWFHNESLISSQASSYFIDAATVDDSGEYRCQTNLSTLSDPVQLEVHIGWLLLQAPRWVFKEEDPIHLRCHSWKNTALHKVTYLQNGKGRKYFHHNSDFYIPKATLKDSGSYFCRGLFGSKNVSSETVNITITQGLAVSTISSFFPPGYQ

[2] = biological target: T1, FcγRIIb extracellular domain with …; assay: SPR (Biacore), antibody captured via antigen peptide, FcγR as analyte; binding amount relative to control heterodimerized antibody
Experimental: (§1) The heterodimerized antibodies He Abs in which one of the H chains was introduced with an alteration were assayed for their binding activities to each activating FcγR and inhibitory FcγR according to the method described in Example 4. […] The activating FcγRs in FIGS. 26, 27, 28, and 29 are FcγRIa, FcγRIIa (R), FcγRIIa (H), and FcγRIIIa, respectively.
(§2) Analysis of interaction between objective antibody and the FcγR was carried out using Biacore T100 (GE Healthcare). HBS-EP+ (GE Healthcare) was used as the running buffer, and the measurement temperature was set to 25° C. Chips produced by immobilizing the antigen peptide by the amine coupling method to a Series S Sencor Chip CM5 (GE Healthcare), or alternatively, chips produced by allowing preliminarily biotinylated antigen peptides to interact with and immobilize onto a Series S Sensor Chip SA (certified) (GE Healthcare) were used. Antibodies of interest were captured onto an antigen peptide-immobilized chip, and allowed to interact to each FcγR diluted with running buffer. To regenerate and repeatedly use the chip, the antibodies captured on the chip were washed off by reacting 10 mM glycine-HCl, pH 1.5.

[3] = biological target: T3, FcγRIIIa extracellular domain with …; assay: as above
Experimental: as §1, §2

[4] = biological target: T2, FcγRIIb extracellular domain with …; assay: SPR (Biacore), antibody captured on antigen peptide chip, FcγR as analyte; bound amount against control heterodimerized antibody
Experimental: as §2
(§3) The FcγR-binding activity of each antibody was assessed primarily using as an indicator the FcγR-binding activity and dissociation constant for FcγR.

[5] = biological target: T4, FcγRIIIa extracellular domain with C-terminal His tag (human, UniProt P08637 17-208); assay: as above
T4 construct: extracellular domain; also called FcgRIIIa; 3a; not shown: His tag attached to the C terminus
Experimental: as §2, §3
T4 sequence (P08637 17-208): as above

[6] = biological target: T4, FcγRIIIa extracellular domain with …; assay: SPR (Biacore); relative FcγRIIIa binding divided by relative FcγRIIb binding of the same antibody
Experimental: as §2, §3

Row | Binder | IIIa/IIb (He_3a/2b) [1] [ratio] | He/Con_2b (IIb binding) [2] | He/Con_3a (IIIa binding) [3] | He/Con_2b (IIb binding) [4] | He/Con_3a (IIIa binding) [5] | He_3a/2b (IIIa/IIb) [6]
1 | GpH7-A5/GpH7-B3 variant I336_03V/GpL16-k0 (heterodimerized antibody, He Ab) (antibody, human IgG1, kappa, Anti-glypican-3 IgG1 heterodimerized antibody; the alteration stands only in the GpH7-B3 chain; Positions in EU numbering; also called I336V) heavy 1: not shown heavy 2: not shown light: DIVMTQSPLSLPVTPGEPASISCQASESLVHSNRNTYLHWYLQKPGQSPQLLIYKVSNRFSGVPDRFSGSGSGTDFTLKISRVEAEDVGVYYCSQNTHVPPTFGQGTKVEIERTVAAPSVFIFPPSDEQLKSGTASVVCLLNNFYPREAKVQWKVDNALQSGNSQESVTEQDSKDSTYSLSSTLTLSKADYEKHKVYACEVTHQGLSSPVTKSFNRGEC | 1.24 | 90.3 relative binding, GpH7-A5/GpH7-B3/GpL16-k0 = 100 | 112 relative binding, GpH7-A5/GpH7-B3/GpL16-k0 = 100 | – | – | –
2 | GpH7-A5/GpH7-B3 variant K334_13S/GpL16-k0 (heterodimerized antibody, He Ab) (antibody, human IgG1, kappa, Anti-glypican-3 IgG1 heterodimerized antibody; the alteration stands only in the GpH7-B3 chain; Positions in EU numbering; also called K334S) heavy 1: not shown heavy 2: not shown light: DIVMTQSPLSLPVTPGEPASISCQASESLVHSNRNTYLHWYLQKPGQSPQLLIYKVSNRFSGVPDRFSGSGSGTDFTLKISRVEAEDVGVYYCSQNTHVPPTFGQGTKVEIERTVAAPSVFIFPPSDEQLKSGTASVVCLLNNFYPREAKVQWKVDNALQSGNSQESVTEQDSKDSTYSLSSTLTLSKADYEKHKVYACEVTHQGLSSPVTKSFNRGEC | 1.31 | 111 relative binding, GpH7-A5/GpH7-B3/GpL16-k0 = 100 | 145 relative binding, GpH7-A5/GpH7-B3/GpL16-k0 = 100 | – | – | –
3 | GpH7-A5/GpH7-B3 variant I336_15Y/GpL16-k0 (heterodimerized antibody, He Ab) (antibody, human IgG1, kappa, Anti-glypican-3 IgG1 heterodimerized antibody; the alteration stands only in the GpH7-B3 chain; Positions in EU numbering; also called I336Y) heavy 1: not shown heavy 2: not shown light: DIVMTQSPLSLPVTPGEPASISCQASESLVHSNRNTYLHWYLQKPGQSPQLLIYKVSNRFSGVPDRFSGSGSGTDFTLKISRVEAEDVGVYYCSQNTHVPPTFGQGTKVEIERTVAAPSVFIFPPSDEQLKSGTASVVCLLNNFYPREAKVQWKVDNALQSGNSQESVTEQDSKDSTYSLSSTLTLSKADYEKHKVYACEVTHQGLSSPVTKSFNRGEC | 1.28 | 68.2 relative binding, GpH7-A5/GpH7-B3/GpL16-k0 = 100 | 87.3 relative binding, GpH7-A5/GpH7-B3/GpL16-k0 = 100 | – | – | –
4 | GpH7-A5/GpH7-B3 variant I336_19Q/GpL16-k0 (heterodimerized antibody, He Ab) (antibody, human IgG1, kappa, Anti-glypican-3 IgG1 heterodimerized antibody; the alteration stands only in the GpH7-B3 chain; Positions in EU numbering; also called I336Q) heavy 1: not shown heavy 2: not shown light: DIVMTQSPLSLPVTPGEPASISCQASESLVHSNRNTYLHWYLQKPGQSPQLLIYKVSNRFSGVPDRFSGSGSGTDFTLKISRVEAEDVGVYYCSQNTHVPPTFGQGTKVEIERTVAAPSVFIFPPSDEQLKSGTASVVCLLNNFYPREAKVQWKVDNALQSGNSQESVTEQDSKDSTYSLSSTLTLSKADYEKHKVYACEVTHQGLSSPVTKSFNRGEC | 1.59 | 58.2 relative binding, GpH7-A5/GpH7-B3/GpL16-k0 = 100 | 92.5 relative binding, GpH7-A5/GpH7-B3/GpL16-k0 = 100 | – | – | –
5 | GpH7-A5/GpH7-B3 variant I336_13S/GpL16-k0 (heterodimerized antibody, He Ab) (antibody, human IgG1, kappa, Anti-glypican-3 IgG1 heterodimerized antibody; the alteration stands only in the GpH7-B3 chain; Positions in EU numbering; also called I336S) heavy 1: not shown heavy 2: not shown light: DIVMTQSPLSLPVTPGEPASISCQASESLVHSNRNTYLHWYLQKPGQSPQLLIYKVSNRFSGVPDRFSGSGSGTDFTLKISRVEAEDVGVYYCSQNTHVPPTFGQGTKVEIERTVAAPSVFIFPPSDEQLKSGTASVVCLLNNFYPREAKVQWKVDNALQSGNSQESVTEQDSKDSTYSLSSTLTLSKADYEKHKVYACEVTHQGLSSPVTKSFNRGEC | 1.21 | 83.7 relative binding, GpH7-A5/GpH7-B3/GpL16-k0 = 100 | 102 relative binding, GpH7-A5/GpH7-B3/GpL16-k0 = 100 | – | – | –
6 | GpH7-A5/GpH7-B3 variant S267_19Q/GpL16-k0 (He Ab) (antibody, human IgG1, kappa, Anti-glypican-3 heterodimerized IgG1 antibody; the mutation stands in only one H chain (the GpH7-B3 chain); also called S267Q in one H chain) heavy 1: not shown heavy 2: not shown light: DIVMTQSPLSLPVTPGEPASISCQASESLVHSNRNTYLHWYLQKPGQSPQLLIYKVSNRFSGVPDRFSGSGSGTDFTLKISRVEAEDVGVYYCSQNTHVPPTFGQGTKVEIERTVAAPSVFIFPPSDEQLKSGTASVVCLLNNFYPREAKVQWKVDNALQSGNSQESVTEQDSKDSTYSLSSTLTLSKADYEKHKVYACEVTHQGLSSPVTKSFNRGEC | – | – | – | 218 relative binding activity, GpH7-A5/GpH7-B3/GpL16-k0 = 100 | 65 relative binding activity, GpH7-A5/GpH7-B3/GpL16-k0 = 100 | 0.3 ratio of He/Con_3a to He/Con_2b
7 | GpH7-A5/GpH7-B3 variant S267_16H/GpL16-k0 (He Ab) (antibody, human IgG1, kappa, Anti-glypican-3 heterodimerized IgG1 antibody; the mutation stands in only one H chain (the GpH7-B3 chain); also called S267H in one H chain) heavy 1: not shown heavy 2: not shown light: DIVMTQSPLSLPVTPGEPASISCQASESLVHSNRNTYLHWYLQKPGQSPQLLIYKVSNRFSGVPDRFSGSGSGTDFTLKISRVEAEDVGVYYCSQNTHVPPTFGQGTKVEIERTVAAPSVFIFPPSDEQLKSGTASVVCLLNNFYPREAKVQWKVDNALQSGNSQESVTEQDSKDSTYSLSSTLTLSKADYEKHKVYACEVTHQGLSSPVTKSFNRGEC | – | – | – | 65.9 relative binding activity, GpH7-A5/GpH7-B3/GpL16-k0 = 100 | 17.9 relative binding activity, GpH7-A5/GpH7-B3/GpL16-k0 = 100 | 0.27 ratio of He/Con_3a to He/Con_2b
